Measured values from paper PMC10546719.

What was measured:
[1] = target: syndecan-1 (human (endogenous in Caco-2)) (UniProt P18827)
[2] = target: syndecan-1 (human (endogenous in Caco-2)) (UniProt P18827); remark: listed apart in the source

UniProt P18827, sequence (P18827 23-310): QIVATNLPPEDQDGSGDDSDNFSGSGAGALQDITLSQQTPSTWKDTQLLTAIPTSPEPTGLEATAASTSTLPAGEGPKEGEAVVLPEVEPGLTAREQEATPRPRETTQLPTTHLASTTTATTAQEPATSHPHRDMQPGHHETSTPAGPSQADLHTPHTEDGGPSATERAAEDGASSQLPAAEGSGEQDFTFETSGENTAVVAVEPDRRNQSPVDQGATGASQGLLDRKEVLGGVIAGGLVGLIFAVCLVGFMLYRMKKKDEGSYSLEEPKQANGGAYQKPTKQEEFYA

Question: What does the source list for “recombinant Trichinella spiralis C-type lectin with GST tag (GST-rTsCTL) (natural protein)”?
Answer: reduction of the rTsCTL (10 µg/mL) promotion of larval invasion of Caco-2 cells by 2.5-20 mM β-xyloside [1]: 46.8%; inhibition of the rTsCTL (10 µg/mL) promotion of larval invasion of Caco-2 cells by 2.5-20 µM Stattic [2]: 49.3%
